Columns and labels:
[1] = biological target: His-tagged human EGFR extracellular domain (expressed and purified in-house) (human) (UniProt P00533); assay: BLI, antibody on AHC tips, monomeric EGFR ECD in solution, 1:1 fit
[2] = biological target: His-tagged human HER3 extracellular domain (Acro ER3-H5223) (human) (UniProt P21860); assay: BLI, antibody on AHC tips, monomeric HER3 ECD in solution, 1:1 fit
[3] = biological target: human His-tagged HER3 extracellular domain (in-house expressed) (human) (UniProt P21860); assay: BLI sandwich assay, antibody held on immobilized biotinylated EGFR, 500 nM HER3 ECD in solution, 1:1 fit
[4] = biological target: biotinylated human EGFR extracellular domain (Acro EGF-H82E3) (human) (UniProt P00533); assay: BLI avidity format, biotinylated EGFR ECD on SA sensors, antibody in solution, 1:1 fit
[5] = biological target: His-tagged human HER3 extracellular domain (Acro ER3-H5223) (human) (UniProt P21860); assay: BLI, SI-1R12 covalently coupled to AR2G sensors, monomeric HER3 ECD in solution, 1:1 fit

SI-1X4.2, nimotuzumab-based EGFR x HER3 bispecific antibody with MM-111 anti-HER3 scFv, sequence (heavy): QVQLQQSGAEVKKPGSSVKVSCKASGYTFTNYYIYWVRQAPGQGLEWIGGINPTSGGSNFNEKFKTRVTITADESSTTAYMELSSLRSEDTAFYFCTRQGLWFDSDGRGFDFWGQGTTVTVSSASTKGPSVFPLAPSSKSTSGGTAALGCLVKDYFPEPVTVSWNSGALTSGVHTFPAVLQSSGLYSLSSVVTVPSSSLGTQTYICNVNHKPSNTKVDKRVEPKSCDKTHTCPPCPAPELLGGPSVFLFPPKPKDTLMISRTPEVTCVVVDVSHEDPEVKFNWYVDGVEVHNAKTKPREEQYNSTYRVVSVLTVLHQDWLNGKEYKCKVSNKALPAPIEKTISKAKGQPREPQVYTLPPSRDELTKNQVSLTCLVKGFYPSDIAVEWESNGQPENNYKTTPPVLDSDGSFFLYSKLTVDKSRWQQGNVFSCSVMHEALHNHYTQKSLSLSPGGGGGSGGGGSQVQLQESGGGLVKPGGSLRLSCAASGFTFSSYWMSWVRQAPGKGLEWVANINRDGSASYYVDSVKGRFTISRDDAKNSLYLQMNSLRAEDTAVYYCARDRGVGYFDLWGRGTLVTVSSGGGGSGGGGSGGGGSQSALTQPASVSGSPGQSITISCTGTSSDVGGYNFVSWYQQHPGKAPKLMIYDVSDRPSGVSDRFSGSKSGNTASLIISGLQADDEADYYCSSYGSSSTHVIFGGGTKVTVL
SI-1X4.2, nimotuzumab-based EGFR x HER3 bispecific antibody with MM-111 anti-HER3 scFv, sequence (light): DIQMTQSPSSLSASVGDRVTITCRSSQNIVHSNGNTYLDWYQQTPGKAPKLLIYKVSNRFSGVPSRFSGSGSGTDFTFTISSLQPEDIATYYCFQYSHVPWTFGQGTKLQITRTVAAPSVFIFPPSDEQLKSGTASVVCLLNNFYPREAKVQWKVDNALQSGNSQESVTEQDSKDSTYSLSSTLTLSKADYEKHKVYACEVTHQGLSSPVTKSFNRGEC

Kd [1] [nM] | Kd [2] [nM] | Kd [3] [nM] | koff [1] [s⁻¹] | kon [1] [M⁻¹ s⁻¹] | koff [2] [s⁻¹] | kon [2] [M⁻¹ s⁻¹] | Kd [4] [nM] | koff [4] [s⁻¹] | kon [4] [M⁻¹ s⁻¹] | koff [3] [s⁻¹] | kon [3] [M⁻¹ s⁻¹] | Kd [5] [nM] | koff [5] [s⁻¹] | kon [5] [M⁻¹ s⁻¹] | Substance
2.77 | 131 | 770 |  |  |  |  |  |  |  |  |  |  |  |  | SI-1X2, panitumumab-based EGFR x HER3 bispecific antibody with MM-111 anti-HER3 scFv
18.8 | 146 | 165 | 0.00202 | 108000 | 0.038 | 260000 | 0.398 | 4.25e-05 | 107000 | 0.0459 | 279000 |  |  |  | SI-1X4.2, nimotuzumab-based EGFR x HER3 bispecific antibody with MM-111 anti-HER3 scFv
 |  |  |  |  |  |  |  |  |  |  |  | 95.6 | 0.0422 | 441000 | SI-1R12 (MM-111), HER2 x HER3 bispecific human serum albumin fusion (bispecific antibody)
5.38 | 107 | 617 |  |  |  |  |  |  |  |  |  |  |  |  | SI-1X6.4, bispecific tetravalent anti-EGFR x HER3 antibody (cetuximab variable regions with mouse framework, MM-111 anti-HER3 scFv) (bispecific antibody)

From patent US20230374157A1
